# B1: Inhibitor of nuclear factor kappa-B kinase subunit alpha (Homo sapiens), O15111 (parent)
# chain: MERPPGLRPGAGGPWEMRERLGTGGFGNVCLYQHRELDLKIAIKSCRLELSTKNRERWCHEIQIMKKLNHANVVKACDVPEELNILIHDVPLLAMEYCSGGDLRKLLNKPENCCGLKESQILSLLSDIGSGIRYLHENKIIHRDLKPENIVLQDVGGKIIHKIIDLGYAKDVDQGSLCTSFVGTLQYLAPELFENKPYTATVDYWSFGTMVFECIAGYRPFLHHLQPFTWHEKIKKKDPKCIFACEEMSGEVRFSSHLPQPNSLCSLVVEPMENWLQLMLNWDPQQRGGPVDLTLKQPRCFVLMDHILNLKIVHILNMTSAKIISFLLPPDESLHSLQSRIERETGINTGSQELLSETGISLDPRKPASQCVLDGVRGCDSYMVYLFDKSKTVYEGPFASRSLSDCVNYIVQDSKIQLPIIQLRKVWAEAVHYVSGLKEDYSRLFQGQRAAMLSLLRYNANLTKMKNTLISASQQLKAKLEFFHKSIQLDLERYSEQMTYGISSEKMLKAWKEMEEKAIHYAEVGVIGYLEDQIMSLHAEIMELQKSPYGRRQGDLMESLEQRAIDLYKQLKHRPSDHSYSDSTEMVKIIVHTVQSQDRVLKELFGHLSKLLGCKQKIIDLLPKVEVALSNIKEADNTVMFMQGKRQKEIWHLLKIACTQSSARSLVGSSLEGAVTPQTSAWLPPTSAEHDHSLSCVVTPQDGETSAQMIEENLNCLGHLSTIIHEANEEQGNSMMNLDWSWLTE
# Variants of: B1
# Conditions: with taxb1_human TAX1BP1, Q86VP1
# Chain of taxb1_human TAX1BP1, Q86VP1 (Q86VP1 whole entry): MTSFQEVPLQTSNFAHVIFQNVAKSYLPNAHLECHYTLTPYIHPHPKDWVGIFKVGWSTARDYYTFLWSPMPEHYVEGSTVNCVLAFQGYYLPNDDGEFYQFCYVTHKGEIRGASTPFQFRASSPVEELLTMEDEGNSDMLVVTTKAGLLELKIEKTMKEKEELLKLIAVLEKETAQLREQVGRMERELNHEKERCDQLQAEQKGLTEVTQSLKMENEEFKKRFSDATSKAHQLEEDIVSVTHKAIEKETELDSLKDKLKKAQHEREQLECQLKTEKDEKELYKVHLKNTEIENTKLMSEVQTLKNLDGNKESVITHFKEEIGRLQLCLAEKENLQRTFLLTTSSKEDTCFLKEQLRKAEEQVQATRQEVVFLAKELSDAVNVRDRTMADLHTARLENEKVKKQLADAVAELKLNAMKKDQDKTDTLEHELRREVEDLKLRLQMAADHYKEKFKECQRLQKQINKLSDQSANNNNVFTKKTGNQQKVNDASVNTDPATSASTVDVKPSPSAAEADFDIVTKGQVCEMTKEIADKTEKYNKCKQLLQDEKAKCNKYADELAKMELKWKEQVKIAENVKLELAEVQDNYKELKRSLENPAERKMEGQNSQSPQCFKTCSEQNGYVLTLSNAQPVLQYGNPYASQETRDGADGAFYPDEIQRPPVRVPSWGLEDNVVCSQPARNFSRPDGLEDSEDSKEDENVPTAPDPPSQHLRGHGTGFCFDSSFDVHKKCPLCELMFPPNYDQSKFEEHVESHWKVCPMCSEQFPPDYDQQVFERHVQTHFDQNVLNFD
row,effect of a mutation on the interaction,Variant
1,disrupting interaction,K44M
